5 molecules from patent US20220098323A1 (US Dept. of Health and Human Services, published 2022) can be followed below.

For orientation: EC50 means the concentration needed to bring the measured effect to its halfway point. A lower EC50 goes with greater potency. For orientation: Kd means a measure of binding affinity in units of concentration. A word on the kon: it is the second-order rate constant of association. Low readings indicate slow association, high ones fast association. One may read the koff as a measure of how fast the partners let go of each other. A higher koff goes with a short-lived complex.

Test [1] has as its target T1, cell-surface GPC1 on GPC1-expressing tumor cells (2B9 KLM, H8, T3M4) (UniProt P35052 24-530, limits assumed).
T1 sequence (looked up): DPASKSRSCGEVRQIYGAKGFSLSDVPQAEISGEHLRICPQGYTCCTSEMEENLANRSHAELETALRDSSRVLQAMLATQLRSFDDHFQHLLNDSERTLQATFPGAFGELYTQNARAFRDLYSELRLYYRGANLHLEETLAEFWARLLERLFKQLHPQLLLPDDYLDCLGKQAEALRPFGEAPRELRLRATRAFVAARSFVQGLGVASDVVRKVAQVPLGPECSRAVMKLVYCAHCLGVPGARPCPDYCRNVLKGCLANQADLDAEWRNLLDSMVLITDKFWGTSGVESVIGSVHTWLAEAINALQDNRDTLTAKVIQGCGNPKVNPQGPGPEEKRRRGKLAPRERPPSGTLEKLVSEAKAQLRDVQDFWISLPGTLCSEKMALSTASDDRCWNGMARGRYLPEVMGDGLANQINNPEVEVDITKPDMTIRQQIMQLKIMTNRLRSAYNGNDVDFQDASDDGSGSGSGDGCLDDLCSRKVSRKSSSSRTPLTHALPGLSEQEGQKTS

Test [2] has as its target T2, human glypican-1 (GPC1) (human, UniProt P35052 24-530).
T2 construct: also called human GPC1; HuGPC1
T2 sequence (looked up): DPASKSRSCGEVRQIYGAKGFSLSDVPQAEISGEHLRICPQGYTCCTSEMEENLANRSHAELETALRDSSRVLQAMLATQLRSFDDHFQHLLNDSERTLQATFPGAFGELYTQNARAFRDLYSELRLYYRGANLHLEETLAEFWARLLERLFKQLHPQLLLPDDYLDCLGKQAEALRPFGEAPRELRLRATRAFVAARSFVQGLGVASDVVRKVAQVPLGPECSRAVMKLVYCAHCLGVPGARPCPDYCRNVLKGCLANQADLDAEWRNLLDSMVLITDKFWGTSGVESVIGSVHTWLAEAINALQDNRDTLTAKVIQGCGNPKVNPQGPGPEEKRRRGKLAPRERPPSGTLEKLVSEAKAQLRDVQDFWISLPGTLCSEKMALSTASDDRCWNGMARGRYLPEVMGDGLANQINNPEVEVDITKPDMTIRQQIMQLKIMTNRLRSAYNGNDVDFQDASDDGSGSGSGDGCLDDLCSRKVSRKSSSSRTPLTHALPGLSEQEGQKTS
The experiment in a line: Octet kinetic analysis. For orientation: Biolayer interferometry detects binding as a change in optical thickness at a sensor tip.

Test [3] has as its target T2, human glypican-1 (GPC1). The test is described as follows: ELISA on GPC1, OD450 against concentration. Background: ELISA stands for enzyme-linked immunosorbent assay.
The target in test [4] is T2, human glypican-1 (GPC1). The test is described as follows: Octet analysis.
The target of test [5] is T2, human glypican-1 (GPC1). The test is described as follows: Octet kinetic analysis (column Kdis).
The target in test [6] is T2, human glypican-1 (GPC1). The experiment in a line: Octet kinetic analysis. This is another data set of the same source.
The target of test [7] is T3, human GPC5 (printed as 'GPCS') (human, UniProt P78333 25-554, limits assumed).
T3 construct: The text prints 'GPCS'
T3 sequence (looked up): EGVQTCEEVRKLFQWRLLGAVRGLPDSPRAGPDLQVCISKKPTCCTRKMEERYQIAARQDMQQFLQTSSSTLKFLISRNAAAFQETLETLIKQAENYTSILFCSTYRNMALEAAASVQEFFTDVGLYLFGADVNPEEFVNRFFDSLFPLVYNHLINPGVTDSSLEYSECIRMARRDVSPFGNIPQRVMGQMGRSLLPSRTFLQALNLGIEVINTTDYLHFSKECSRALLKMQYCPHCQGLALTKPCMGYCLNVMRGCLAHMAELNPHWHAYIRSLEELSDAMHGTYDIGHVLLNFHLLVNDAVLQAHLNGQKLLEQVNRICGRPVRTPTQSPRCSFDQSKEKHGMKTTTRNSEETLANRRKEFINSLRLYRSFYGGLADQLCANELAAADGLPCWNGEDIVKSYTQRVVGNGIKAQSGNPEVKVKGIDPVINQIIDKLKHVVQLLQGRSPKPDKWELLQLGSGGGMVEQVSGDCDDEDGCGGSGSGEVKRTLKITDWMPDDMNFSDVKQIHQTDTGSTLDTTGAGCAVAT
The test is described as follows: monoclonal phage ELISA.

In the next test the target is human GPC3 (human, UniProt P51654 25-559, limits assumed). The experiment in a line: monoclonal phage ELISA.
The next test deals with T4, human GPC2 (human, UniProt Q8N158 24-554, limits assumed).
T4 sequence (looked up): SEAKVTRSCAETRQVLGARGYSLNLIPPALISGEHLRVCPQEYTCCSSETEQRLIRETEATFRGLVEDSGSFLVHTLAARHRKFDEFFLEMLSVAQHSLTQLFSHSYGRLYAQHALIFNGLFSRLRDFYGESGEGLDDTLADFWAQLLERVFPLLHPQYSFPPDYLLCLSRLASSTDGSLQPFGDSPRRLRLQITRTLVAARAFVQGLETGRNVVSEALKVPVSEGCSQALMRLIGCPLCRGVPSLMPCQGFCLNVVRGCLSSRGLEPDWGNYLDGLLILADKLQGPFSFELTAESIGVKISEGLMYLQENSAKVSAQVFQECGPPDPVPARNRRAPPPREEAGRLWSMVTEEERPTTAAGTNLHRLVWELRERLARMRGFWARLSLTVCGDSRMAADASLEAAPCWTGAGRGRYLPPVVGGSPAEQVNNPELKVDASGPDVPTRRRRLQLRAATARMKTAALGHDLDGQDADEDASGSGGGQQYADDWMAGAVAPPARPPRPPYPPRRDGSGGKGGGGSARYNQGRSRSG
The experiment in a line: monoclonal phage ELISA.

Another test has as its target T5, mouse GPC1 (mouse, UniProt Q9QZF2 24-529, limits assumed).
T5 construct: also called MsGPC1
T5 sequence (looked up): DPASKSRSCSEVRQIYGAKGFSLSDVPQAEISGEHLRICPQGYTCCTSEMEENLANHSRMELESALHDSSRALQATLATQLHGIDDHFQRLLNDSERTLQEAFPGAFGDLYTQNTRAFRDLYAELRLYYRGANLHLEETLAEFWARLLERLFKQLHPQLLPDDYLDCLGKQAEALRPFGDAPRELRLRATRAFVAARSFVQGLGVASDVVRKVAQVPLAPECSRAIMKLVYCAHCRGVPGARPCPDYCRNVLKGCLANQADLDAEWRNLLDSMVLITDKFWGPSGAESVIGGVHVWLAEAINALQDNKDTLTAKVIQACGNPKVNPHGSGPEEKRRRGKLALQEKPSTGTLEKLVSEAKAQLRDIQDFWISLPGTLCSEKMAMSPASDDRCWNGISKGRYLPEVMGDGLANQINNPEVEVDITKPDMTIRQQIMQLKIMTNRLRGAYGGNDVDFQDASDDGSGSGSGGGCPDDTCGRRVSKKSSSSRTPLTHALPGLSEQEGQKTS
The experiment in a line: monoclonal phage ELISA.

The next test addresses T6, human GPC6 (human, UniProt Q9Y625 24-529, limits assumed).
T6 sequence (looked up): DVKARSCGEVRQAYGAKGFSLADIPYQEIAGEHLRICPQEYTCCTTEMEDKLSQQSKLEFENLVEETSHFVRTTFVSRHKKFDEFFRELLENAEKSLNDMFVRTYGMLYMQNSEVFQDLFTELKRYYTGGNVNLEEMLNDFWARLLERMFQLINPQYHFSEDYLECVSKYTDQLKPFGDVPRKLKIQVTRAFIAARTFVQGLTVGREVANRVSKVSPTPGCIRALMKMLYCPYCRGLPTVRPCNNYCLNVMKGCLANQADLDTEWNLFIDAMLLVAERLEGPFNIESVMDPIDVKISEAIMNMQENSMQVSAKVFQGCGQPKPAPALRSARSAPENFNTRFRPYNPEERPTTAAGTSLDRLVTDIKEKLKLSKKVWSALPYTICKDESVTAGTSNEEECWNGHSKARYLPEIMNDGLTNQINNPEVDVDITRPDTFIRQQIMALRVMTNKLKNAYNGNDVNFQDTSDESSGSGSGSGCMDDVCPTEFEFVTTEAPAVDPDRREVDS
The test is described as follows: monoclonal phage ELISA.

Test [8] addresses T2, human glypican-1 (GPC1). The experiment in a line: Octet kinetic analysis. This is another data set of the same source.

Sequence of human GPC3 (P51654 25-559 limits assumed): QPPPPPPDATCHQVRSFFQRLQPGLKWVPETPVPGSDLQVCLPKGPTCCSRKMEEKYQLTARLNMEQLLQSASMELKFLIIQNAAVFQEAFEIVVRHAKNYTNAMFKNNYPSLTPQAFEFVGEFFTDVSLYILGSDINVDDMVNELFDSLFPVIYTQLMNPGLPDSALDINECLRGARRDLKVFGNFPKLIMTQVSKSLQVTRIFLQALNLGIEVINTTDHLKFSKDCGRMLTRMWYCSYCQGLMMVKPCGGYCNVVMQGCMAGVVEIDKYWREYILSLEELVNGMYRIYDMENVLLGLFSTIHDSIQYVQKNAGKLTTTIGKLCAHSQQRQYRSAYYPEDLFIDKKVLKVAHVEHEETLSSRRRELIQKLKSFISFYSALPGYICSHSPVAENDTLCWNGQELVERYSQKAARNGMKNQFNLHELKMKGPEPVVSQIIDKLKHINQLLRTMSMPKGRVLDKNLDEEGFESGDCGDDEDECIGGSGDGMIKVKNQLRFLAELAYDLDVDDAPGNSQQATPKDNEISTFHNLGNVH

B1: D4-LR immunotoxin (other)
chain: MQVQLVESGGGLVQPGGSLRLSCVASGYSYSIGYMAWFRQAPGKERAWVASRYTGDGGAVFDDAVKGRFTTSQESAGNTFDLQMDSLKPEDTAMYYCAAKGPGFGRWEYWGRGTQVTVSSKLKASGGRHRQPRGWEQLGGGGGSPTGAEFLGDGGDVSFSTRGTQNWTVERLLQAHRQLEERGYVFVGYHGTFLEAAQSIVFGGVRARSQDLDAIWRGFYIAGDPALAYGYAQDQEPDARGRIRNGALLRVYVPRSSLPGFYRTSLTLAAPEAAGEVERLIGHPLPLRLDAITGPEEEGGRLETILGWPLAERTVVIPSAIPTDPRNVGGDLDPSSIPDKEQAISALPDYASQPGKPPREDLK
Turning to B1, the concentration giving a half-maximal response (EC50) in test [1] was found to be 8.1 nM; with human glypican-1 (GPC1) [3], 4.3 nM. The Kd is 6.25 nM with human glypican-1 (GPC1) [2] and 6.3 nM with human glypican-1 (GPC1) [4]. Also, the kon in the test with human glypican-1 (GPC1) [2] worked out at 350000 M⁻¹ s⁻¹. The same molecule registered a koff with human glypican-1 (GPC1) [5] of 0.00218 s⁻¹.

B2: D4-AAA-D4-LR immunotoxin (other)
chain: MQVQLVESGGGLVQPGGSLRLSCVASGYSYSIGYMAWFRQAPGKERAWVASRYTGDGGAVFDDAVKGRFTTSQESAGNTFDLQMDSLKPEDTAMYYCAAKGPGFGRWEYWGRGTQVTVSSAAAQVQLVESGGGLVQPGGSLRLSCVASGYSYSIGYMAWFRQAPGKERAWVASRYTGDGGAVFDDAVKGRFTTSQESAGNTFDLQMDSLKPEDTAMYYCAAKGPGFGRWEYWGRGTQVTVSSKLKASGGRHRQPRGWEQLGGGGGSPTGAEFLGDGGDVSFSTRGTQNWTVERLLQAHRQLEERGYVFVGYHGTFLEAAQSIVFGGVRARSQDLDAIWRGFYIAGDPALAYGYAQDQEPDARGRIRNGALLRVYVPRSSLPGFYRTSLTLAAPEAAGEVERLIGHPLPLRLDAITGPEEEGGRLETILGWPLAERTVVIPSAIPTDPRNVGGDLDPSSIPDKEQAISALPDYASQPGKPPREDLK
notes: also called bivalent D4 immunotoxin; D4-D4-LR
As to B2, the 50% effective concentration (EC50) in [1] was 1.9 nM; with human glypican-1 (GPC1) [3] it was 0.2 nM. In the test with human glypican-1 (GPC1) [6], this molecule had a Kd of 0.09 nM.

B3: D4-GGS-D4-LR immunotoxin (other)
chain: MQVQLVESGGGLVQPGGSLRLSCVASGYSYSIGYMAWFRQAPGKERAWVASRYTGDGGAVFDDAVKGRFTTSQESAGNTFDLQMDSLKPEDTAMYYCAAKGPGFGRWEYWGRGTQVTVSSGGSQVQLVESGGGLVQPGGSLRLSCVASGYSYSIGYMAWFRQAPGKERAWVASRYTGDGGAVFDDAVKGRFTTSQESAGNTFDLQMDSLKPEDTAMYYCAAKGPGFGRWEYWGRGTQVTVSSKLKASGGRHRQPRGWEQLGGGGGSPTGAEFLGDGGDVSFSTRGTQNWTVERLLQAHRQLEERGYVFVGYHGTFLEAAQSIVFGGVRARSQDLDAIWRGFYIAGDPALAYGYAQDQEPDARGRIRNGALLRVYVPRSSLPGFYRTSLTLAAPEAAGEVERLIGHPLPLRLDAITGPEEEGGRLETILGWPLAERTVVIPSAIPTDPRNVGGDLDPSSIPDKEQAISALPDYASQPGKPPREDLK
notes: as for B2
Consider B3, for which the EC50 in test [1] is 3.8 nM; with human glypican-1 (GPC1) [3] it was 0.1 nM. In the test with human glypican-1 (GPC1) [6], this molecule gave a Kd of 0.08 nM.

B4: HM2-LR immunotoxin (other)
chain: MEVQLQQSGAELVRPGASVKLSCTASGFNIKDDYMHWVKQRPEQGLEWIGWIDPENGDTEYASKFQGKATITADTSSNTAYLQLSSLTSEDTAVYYCTRSSVGYWGQGTTLTVSSGGGGSGGGGSGGGGSDVVMTQTPLSLPVSLGDQASISCRSSQSLVHSNGNTYLHWYLQKPGQSPKLLIYKVSNRFSGVPDRFSGSGSGTYFTLKISRVEAEDLGVYFCSQRTHVPYTFGGGTKLEIKKLKASGGRHRQPRGWEQLGGGGGSPTGAEFLGDGGDVSFSTRGTQNWTVERLLQAHRQLEERGYVFVGYHGTFLEAAQSIVFGGVRARSQDLDAIWRGFYIAGDPALAYGYAQDQEPDARGRIRNGALLRVYVPRSSLPGFYRTSLTLAAPEAAGEVERLIGHPLPLRLDAITGPEEEGGRLETILGWPLAERTVVIPSAIPTDPRNVGGDLDPSSIPDKEQAISALPDYASQPGKPPREDLK
In the test with human glypican-1 (GPC1) [2], B4 gave a Kd of 6.94 nM and a kon of 297000 M⁻¹ s⁻¹. The molecule further displayed a Kd in the test with human glypican-1 (GPC1) [4] of 6.9 nM. In the test with human glypican-1 (GPC1) [5], this molecule returned a koff of 0.00206 s⁻¹.

B5: camel single-domain antibody D4 (VHH)
VHH: QVQLVESGGGLVQPGGSLRLSCVASGYSYSIGYMAWFRQAPGKERAWVASRYTGDGGAVFDDAVKGRFTTSQESAGNTFDLQMDSLKPEDTAMYYCAAKGPGFGRWEYWGRGTQVTVSS
notes: also called D4 antibody; VHH antibody D4
Consider B5, for which the binding result in [7] is listed as “no binding”; with human GPC3 it was “no binding”; with human GPC2 it was “no binding”; with mouse GPC1, “binds”; with human GPC6 it was “no binding”. This molecule also had a Kd in the test with human glypican-1 (GPC1) [8] of 1.3 nM.
